The values below come from publication PMC4266902, “Néstor-Guillermo Progeria Syndrome: a biochemical insight into Barrier-to-Autointegration Factor 1, alanine 12 threonine mutation” (BMC Molecular Biology, 2014).

Series [1] concerns the molecule itself. The experiment in a line: SEC; gel filtration of recombinant HexaHis BANF1, absorbance at 280 nm against elution volume; column calibrated with carbonic anhydrase (29 kDa) and myoglobin (17 kDa). Background: SEC sorts molecules by how far they enter the pores of the column.
Another series addresses T1, BANF1 WT (UniProt O75531 1-89).
T1 sequence: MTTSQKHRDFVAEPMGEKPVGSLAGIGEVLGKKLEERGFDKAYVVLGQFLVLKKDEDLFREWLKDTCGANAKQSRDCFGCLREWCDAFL
The series can be described thus: EMSA; 0-1 uM protein, 10 nM DNA, 30 min 4 C; 10 mM Tris-HCl pH 7.0, 20 mM NaCl, 100 ng/mL BSA, 5 mM DTT, 30 min at 4 C; 7% PAGE 0.5x TBE at 4 C (short DNA) or 0.6% agarose 1x TBE (plasmid). Conditions: protein: recombinant; tags: N-terminal His6; label: 5'-FAM on strand 1; blunt. (In general: Mobility shift assays separate free from complexed probe on a gel.)

B1: recombinant HexaHis-tagged wild type BANF1 (Barrier-to-Autointegration Factor 1) (natural protein, human, UniProt O75531 1-89, looked up)
chain: MTTSQKHRDFVAEPMGEKPVGSLAGIGEVLGKKLEERGFDKAYVVLGQFLVLKKDEDLFREWLKDTCGANAKQSRDCFGCLREWCDAFL
notes: Barrier-to-Autointegration Factor 1 (BANF1, BAF1), human, 89 amino acid residues; BANF1 CDS sub-cloned into pEX-N-His (Origene); also called BANF1 WT; WT BANF1; not shown: His6, N-terminal, kept
For B1, the “stoichiometry N” value in series [1] worked out at 2.

B2: recombinant HexaHis-tagged A12T BANF1 (natural protein, human, UniProt O75531 1-89, looked up)
chain: MTTSQKHRDFVTEPMGEKPVGSLAGIGEVLGKKLEERGFDKAYVVLGQFLVLKKDEDLFREWLKDTCGANAKQSRDCFGCLREWCDAFL
notes: Barrier-to-Autointegration Factor 1 (BANF1, BAF1), human, 89 amino acid residues; BANF1 CDS in pEX-N-His (Origene) with the patient mutation c.34G>A [p.A12T] made by site-directed mutagenesis; A12T is the mutation found in patients with Nestor-Guillermo Progeria Syndrome; also called BANF1 A12T; A12T mutant; not shown: His6, N-terminal, kept
Turning to B2, the “stoichiometry N” value in series [1] amounted to 2.

B3: FAM-labelled short dsDNA (dsDNA)
DNA 1: CTCTCCCTTCGCTCCTTTCCTCT
DNA 2: AGAGGAAAGGAGCGAAGGGAGAG
On to B3, for which the binding result with BANF1 WT is “binds”.

Usually stoichiometry N stands for a count of units in the complex or per binding partner.
